Numbering of substitutions follows the chain as printed. Numbers in names are those of the source.
Assays:
[1] = target: Alexa-647–labeled GPIHBP1^34–131/R38G (human) (UniProt Q8IV16); assay: MST; Monolith NT.115; 5 nM Alexa-647-labeled GPIHBP1, LPL2 titrated 10 pM to 350 nM; 10 mM HEPES (pH 7.4), 150 mM NaCl, 4 mM CaCl2, 0.05% P20, 1.0 mg/ml BSA; 22°C; 1:1 model
[2] = target: bovine LPL homodimer (LPL2) (bovine) (UniProt P11151); assay: SPR; Biacore T200, CM4 chip; bovine LPL2 captured on immobilised mAb 5D2, GPIHBP1 as analyte (12.5-200 nM), single-cycle kinetic titration; 20°C; 10 mM HEPES (pH 7.4), 150 mM NaCl, 4 mM CaCl2, 0.05% P20, 0.2 mg/ml BSA; 1:1 model
[3] = target: bovine LPL homodimer (LPL2) (bovine) (UniProt P11151)
[4] = target: T1, bovine LPL homodimer (LPL2) (bovine, UniProt P11151 29-478); assay: SPR; Biacore T200, CM4 chip; bovine LPL2 captured on immobilised mAb 5D2, GPIHBP1 as analyte (12.5-200 nM), single-cycle kinetic titration; 20°C; 10 mM HEPES (pH 7.4), 150 mM NaCl, 4 mM CaCl2, 0.05% P20, 0.2 mg/ml BSA; 1:1 model; details: both partners purified
T1 construct: lipoprotein lipase (LPL), bovine, from milk; bovine LPL has two residues more than human LPL (Lys296 human = Lys298 bovine); numbers count on: the mature protein; Fractions with dimeric LPL were used; head-to-tail homodimer; also called lipoprotein lipase; full-length LPL; source: purified from fresh bovine milk (heparin-Sepharose, hydroxyapatite, Superdex HR200 SEC)
T1 sequence (looked up): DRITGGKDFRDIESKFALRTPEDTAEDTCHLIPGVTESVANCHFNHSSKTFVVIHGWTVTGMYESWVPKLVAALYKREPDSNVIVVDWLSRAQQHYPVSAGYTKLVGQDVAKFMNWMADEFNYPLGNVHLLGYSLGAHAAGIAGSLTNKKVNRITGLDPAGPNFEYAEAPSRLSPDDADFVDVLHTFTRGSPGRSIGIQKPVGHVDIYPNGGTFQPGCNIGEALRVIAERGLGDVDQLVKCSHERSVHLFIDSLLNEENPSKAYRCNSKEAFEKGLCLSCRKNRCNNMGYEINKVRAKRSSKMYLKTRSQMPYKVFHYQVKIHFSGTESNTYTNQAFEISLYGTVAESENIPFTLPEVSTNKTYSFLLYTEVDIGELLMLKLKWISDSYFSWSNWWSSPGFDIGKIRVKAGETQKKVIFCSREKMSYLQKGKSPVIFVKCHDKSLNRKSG

[5] = target: T1, bovine LPL homodimer (LPL2); assay: cell-based or functional assay
CTD^313–448 of human LPL = target: T2, CTD^313–448 of human LPL (human, UniProt P06858 340-475); assay: SPR; Biacore T200, CM4 chip; LPL CTD captured on immobilised mAb 5D2 (~100–200 RU), GPIHBP1 as analyte 8 nM to 4 µM; 20°C; 10 mM HEPES, 150 mM NaCl, 3 mM EDTA (pH 7.4), 0.05% P20; single- and multi-cycle kinetics, global fit to a 1:1 model; details: both partners purified
T2 construct: lipoprotein lipase (LPL), human, C-terminal domain, residues 313-448; numbers count on: the mature protein; the printed surface densities (85 RU ~ 5 fmols/mm^2) fit about 17 kDa, that is a CTD without the tag (surmise); also called LPL CTD; C-terminal domain of LPL; source: Drosophila S2 cells, secreted as RS-DIII-ent-CTD, purified (anti-uPAR mAb R24 column)
T2 sequence (looked up): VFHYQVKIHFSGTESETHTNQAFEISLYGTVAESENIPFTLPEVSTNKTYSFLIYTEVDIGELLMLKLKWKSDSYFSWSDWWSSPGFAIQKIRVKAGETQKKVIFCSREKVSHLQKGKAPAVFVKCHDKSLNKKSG

[6] = target: T1, bovine LPL homodimer (LPL2); assay: MST; Monolith NT.115; 5 nM Alexa-647-labeled GPIHBP1, LPL2 titrated 10 pM to 350 nM; 10 mM HEPES (pH 7.4), 150 mM NaCl, 4 mM CaCl2, 0.05% P20, 1.0 mg/ml BSA; 22°C; 1:1 model; details: both partners purified

## bovine LPL homodimer (LPL2) (from UniProt P11151 29-478) (enzyme)
[1]
  Kd: 147 nM

## GPIHBP1^34–131/R38G (from UniProt Q8IV16 54-151) (domain or fragment)
[2]
  Kd: 91 nM
  koff: 0.019 s⁻¹
  kon: 190000 M⁻¹ s⁻¹
[3]
  Loss of esterase activity (%) of LPL after 45 min at 25°C; relative to LPL without ligand (100%): 34.7%
  Loss of triolein hydrolase activity (%) of LPL after 45 min at 25°C; relative to LPL without ligand (100%): 51.5%
  Unfolding of NTD in LPL (%) after 45 min at 25°C, by pulse-labeling HDX-MS, equimolar ligand; relative to LPL without ligand (100%): 79.2%

## GPIHBP1^1–33 (peptide)
[3]
  Loss of esterase activity (%) of LPL after 45 min at 25°C, peptide in 5-fold molar excess; relative to LPL without ligand (100%): 9.8%
  Loss of triolein hydrolase activity (%) of LPL after 45 min at 25°C, peptide in 5-fold molar excess; relative to LPL without ligand (100%): 4.2%
  Unfolding of NTD in LPL (%) after 45 min at 25°C, by pulse-labeling HDX-MS, equimolar ligand; relative to LPL without ligand (100%): 43%

B1: GPIHBP1^1–131/R38G (domain or fragment, human, UniProt Q8IV16 21-151, looked up)
chain: QTQQEEEEEDEDHGPDDYDEEDEDEVEEEETNRLPGGGSRVLLRCYTCKSLPRDERCNLTQNCSHGQTCTTLIAHGNTESGLLTTHSTWCTDSCQPITKTVEGTQVTMTCCQSSLCNVPPWQSSRVQDPTG
notes: numbers count on: the mature protein; Monomeric by SEC; Carries a single N-linked glycan; also called soluble human GPIHBP1; not shown: uPAR domain III (DIII), N-terminal, cleaved
[4]
  Kd: 25 ± 7 nM
  koff: 0.023 ± 0.006 s⁻¹
  kon: 990000 M⁻¹ s⁻¹
[5]
  Loss of esterase activity (%) of LPL after 45 min at 25°C; relative to LPL without ligand (100%): 11.4%
  Loss of triolein hydrolase activity (%) of LPL after 45 min at 25°C; relative to LPL without ligand (100%): 28.7%
  Unfolding of NTD in LPL (%) after 45 min at 25°C, by pulse-labeling HDX-MS, equimolar ligand; relative to LPL without ligand (100%): 32.6%
CTD^313–448 of human LPL
  Kd: 120 ± 40 nM
  koff: 0.12 ± 0.04 s⁻¹
  kon: 1.04e+06 M⁻¹ s⁻¹

B2: GPIHBP1^1–131 (domain or fragment, human, UniProt Q8IV16 21-151, looked up)
chain: B1 chain with G38R
notes: numbers count on: the mature protein; not shown: uPAR domain III (DIII), N-terminal, cleaved
[4]
  Kd: 38 ± 29 nM
  koff: 0.02 ± 0.007 s⁻¹
  kon: 650000 M⁻¹ s⁻¹
CTD^313–448 of human LPL
  Kd: 290 ± 130 nM
  koff: 0.22 ± 0.07 s⁻¹
  kon: 1.12e+06 M⁻¹ s⁻¹

B3: GPIHBP1^1–131/R38G N-gly (domain or fragment, human, UniProt Q8IV16 21-151, looked up)
chain: B1 chain
modifications: the single N-linked glycan removed with N-glycanase
notes: numbers count on: the mature protein; As m1 after removal of the N-glycan; source: Drosophila S2 cells, purified, then incubated overnight at 37°C with N-glycanase under native conditions; not shown: uPAR domain III (DIII), N-terminal, cleaved
CTD^313–448 of human LPL
  Kd: 150 nM
  koff: 0.16 s⁻¹
  kon: 1.06e+06 M⁻¹ s⁻¹

B4: Alexa-647–labeled GPIHBP1^1–131/R38G (domain or fragment, human, UniProt Q8IV16 21-151, looked up)
chain: B1 chain
modifications: Alexa Flour-647 (NHS ester), average 1.3 flurophore/protein; conditions favor modification of the N-terminal α-amino group
notes: numbers count on: the mature protein; m1 with a fluorophore; source: Drosophila S2 cells, purified, labeled with Alexa Flour-647 NHS ester, desalted (PD-10); not shown: uPAR domain III (DIII), N-terminal, cleaved
[6]
  Kd: 5.7 nM

B5: GPIHBP1^34–131/R38G (domain or fragment, human, UniProt Q8IV16 54-151, looked up)
chain: LPGGGSRVLLRCYTCKSLPRDERCNLTQNCSHGQTCTTLIAHGNTESGLLTTHSTWCTDSCQPITKTVEGTQVTMTCCQSSLCNVPPWQSSRVQDPTG
notes: numbers count on: the mature protein; Monomeric by SEC; also called truncated GPIHBP1 lacking the acidic domain; isolated LU domain; source: Drosophila S2 cells; not shown: uPAR domain III (DIII), N-terminal, cleaved
CTD^313–448 of human LPL
  Kd: 1410 ± 760 nM
  koff: 0.1 ± 0.01 s⁻¹
  kon: 100000 M⁻¹ s⁻¹

Source: PMC4755760, “The acidic domain of the endothelial membrane protein GPIHBP1 stabilizes lipoprotein lipase activity by preventing unfolding of its catalytic domain” (eLife, 2016)
